Target: RPB1 subunit of human RNA polymerase II (human (endogenous in HeLa), UniProt P24928 1-1970)
Test: cryo-EM structure; EC_(REC-Apo): Pol II on anti-RPB1-protein G resin incubated with tenfold excess of nucleic acid scaffold, then tenfold excess of RECQL5_(1–620)-D157A, no nucleotide; eluted with RPB1 triheptapeptide repeat; crosslinked with 0.02% glutaraldehyde; graphene oxide grids
Conditions: both partners purified

B1: RECQL5_(1–620)-D157A (domain or fragment)
chain: MSSHHTTFPFDPERRVRSTLKKVFGFDSFKTPLQESATMAVVKGNKDVFVCMPTGAGKSLCYQLPALLAKGITIVVSPLIALIQDQVDHLLTLKVRVSSLNSKLSAQERKELLADLEREKPQTKILYITPEMAASSSFQPTLNSLVSRHLLSYLVVAEAHCVSQWGHDFRPDYLRLGALRSRLGHAPCVALTATATPQVQEDVFAALHLKKPVAIFKTPCFRANLFYDVQFKELISDPYGNLKDFCLKALGQEADKGLSGCGIVYCRTREACEQLAIELSCRGVNAKAYHAGLKASERTLVQNDWMEEKVPVIVATISFGMGVDKANVRFVAHWNIAKSMAGYYQESGRAGRDGKPSWCRLYYSRNDRDQVSFLIRKEVAKLQEKRGNKASDKATIMAFDALVTFCEELGCRHAAIAKYFGDALPACAKGCDHCQNPTAVRRRLEALERSSSWSKTCIGPSQGNGFDPELYEGGRKGYGDFSRYDEGSGGSGDEGRDEAHKREWNLFYQKQMQLRKGKDPKIEEFVPPDENCPLKEASSRRIPRLTVKAREHCLRLLEEALSSNRQSTRTADEADLRAKAVELEHETFRNAKVANLYKASVLKKVADIHRASKDGQPYDM
notes: RECQL5 helicase, human, residues 1-620 (helicase D1 and D2 subdomains, RQC domain, IRI module with αN helix and KIX domain); lacks the unstructured region and the SRI domain; The purification is described for GST-tagged RECQL5_(1–620) in general; Used without nucleotide in EC_(REC-Apo); also called truncated RECQL5 construct; source: E. coli BL21-CodonPlus (DE3)-RIL, purified (glutathione …)
  binding result: binds
